Data as given in the supplement of paper PMC10567573.

B1: WSB1 (parent)
chain: DLKDDGNMMKVLRGHQNWVYSCAF
B2: ZNF193 (parent)
chain: QCIECGKSFNRHCNLIRHQKIHTV

Variants of: B1
Assay: protein stability index of a GFP-peptide fusion (GPS, HEK-293T) (PSI 1-6); higher = more stable
Settings: c terminus: a fixed tail appended
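Further: lentivirally expressed fusions sorted by FACS into six bins by GFP to DsRed ratio, PSI derived from sequencing read proportions per bin multiplied by bin number.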

Variant | protein stability index
DRKDDGNMMKVLRGHQNWVYSCAF [L2R] | 2.05
DMKDDGNMMKVLRGHQNWVYSCAF [L2M] | 1.65
DEKDDGNMMKVLRGHQNWVYSCAF [L2E] | 1.95
DIKDDGNMMKVLRGHQNWVYSCAF [L2I] | 1.69
DNKDDGNMMKVLRGHQNWVYSCAF [L2N] | 2.53
DSKDDGNMMKVLRGHQNWVYSCAF [L2S] | 1.34
DPKDDGNMMKVLRGHQNWVYSCAF [L2P] | 1.82
DQKDDGNMMKVLRGHQNWVYSCAF [L2Q] | 1.83
DDKDDGNMMKVLRGHQNWVYSCAF [L2D] | 2.39
DCKDDGNMMKVLRGHQNWVYSCAF [L2C] | 2.13
DGKDDGNMMKVLRGHQNWVYSCAF [L2G] | 1.91
DVKDDGNMMKVLRGHQNWVYSCAF [L2V] | 1.29
DHKDDGNMMKVLRGHQNWVYSCAF [L2H] | 1.68
DYKDDGNMMKVLRGHQNWVYSCAF [L2Y] | 1.93
DTKDDGNMMKVLRGHQNWVYSCAF [L2T] | 2.08
DAKDDGNMMKVLRGHQNWVYSCAF [L2A] | 1.47
DKKDDGNMMKVLRGHQNWVYSCAF [L2K] | 1.54
DFKDDGNMMKVLRGHQNWVYSCAF [L2F] | 1.59
KLKDDGNMMKVLRGHQNWVYSCAF [D1K] | 2.65
LLKDDGNMMKVLRGHQNWVYSCAF [D1L] | 2.52
RLKDDGNMMKVLRGHQNWVYSCAF [D1R] | 1
YLKDDGNMMKVLRGHQNWVYSCAF [D1Y] | 1.78

Variant | protein stability index
MLKDDGNMMKVLRGHQNWVYSCAF [D1M] | 2.04
QLKDDGNMMKVLRGHQNWVYSCAF [D1Q] | 1.38
VLKDDGNMMKVLRGHQNWVYSCAF [D1V] | 1.89
ALKDDGNMMKVLRGHQNWVYSCAF [D1A] | 1.62
GLKDDGNMMKVLRGHQNWVYSCAF [D1G] | 1.76
PLKDDGNMMKVLRGHQNWVYSCAF [D1P] | 1.59
FLKDDGNMMKVLRGHQNWVYSCAF [D1F] | 2.47
ELKDDGNMMKVLRGHQNWVYSCAF [D1E] | 2.24
HLKDDGNMMKVLRGHQNWVYSCAF [D1H] | 1.78
TLKDDGNMMKVLRGHQNWVYSCAF [D1T] | 2.3
NLKDDGNMMKVLRGHQNWVYSCAF [D1N] | 2.02
DLWDDGNMMKVLRGHQNWVYSCAF [K3W] | 2.49
DLQDDGNMMKVLRGHQNWVYSCAF [K3Q] | 1.37
DLFDDGNMMKVLRGHQNWVYSCAF [K3F] | 2.12
DLRDDGNMMKVLRGHQNWVYSCAF [K3R] | 1.48
DLADDGNMMKVLRGHQNWVYSCAF [K3A] | 2.75
DLLDDGNMMKVLRGHQNWVYSCAF [K3L] | 1.83
DLMDDGNMMKVLRGHQNWVYSCAF [K3M] | 2.06
DLCDDGNMMKVLRGHQNWVYSCAF [K3C] | 2.27
DLHDDGNMMKVLRGHQNWVYSCAF [K3H] | 1.93
DLSDDGNMMKVLRGHQNWVYSCAF [K3S] | 1.77
DLNDDGNMMKVLRGHQNWVYSCAF [K3N] | 1.43

Variant | protein stability index
DLEDDGNMMKVLRGHQNWVYSCAF [K3E] | 1.9
DLTDDGNMMKVLRGHQNWVYSCAF [K3T] | 2.65
DLYDDGNMMKVLRGHQNWVYSCAF [K3Y] | 1.84
DLDDDGNMMKVLRGHQNWVYSCAF [K3D] | 2.57
DLGDDGNMMKVLRGHQNWVYSCAF [K3G] | 2.54
DLPDDGNMMKVLRGHQNWVYSCAF [K3P] | 1.07
DLKHDGNMMKVLRGHQNWVYSCAF [D4H] | 1.66
DLKLDGNMMKVLRGHQNWVYSCAF [D4L] | 3.75
DLKGDGNMMKVLRGHQNWVYSCAF [D4G] | 1.16
DLKPDGNMMKVLRGHQNWVYSCAF [D4P] | 2.28
DLKEDGNMMKVLRGHQNWVYSCAF [D4E] | 1.91
DLKKDGNMMKVLRGHQNWVYSCAF [D4K] | 2.29
DLKRDGNMMKVLRGHQNWVYSCAF [D4R] | 1.59
DLKQDGNMMKVLRGHQNWVYSCAF [D4Q] | 2.63
DLKCDGNMMKVLRGHQNWVYSCAF [D4C] | 2.88
DLKSDGNMMKVLRGHQNWVYSCAF [D4S] | 2.42
DLKMDGNMMKVLRGHQNWVYSCAF [D4M] | 2.4
DLKTDGNMMKVLRGHQNWVYSCAF [D4T] | 1.98
DLKNDGNMMKVLRGHQNWVYSCAF [D4N] | 3.38
DLKIDGNMMKVLRGHQNWVYSCAF [D4I] | 2.67
DLKFDGNMMKVLRGHQNWVYSCAF [D4F] | 2.77

Variants of: B2
Assay: as above
Settings: c terminus: a fixed tail appended

Variant | protein stability index
QCIECGKSFNRHCNLNRHQKIHTV [I16N] | 2.89
QCIECGKSFNRHCNLKRHQKIHTV [I16K] | 4
QCIECGKSFNRHCNQIRHQKIHTV [L15Q] | 2.9
QCIECGKSFNRHCNLIRHQKIHGV [T23G] | 3.31
QCIECGKSFNRHCNLIRHQKIHQV [T23Q] | 4.09
QCIECGKSFNRHCNLIRHQKIHKV [T23K] | 3.47
QVIECGKSFNRHCNLIRHQKIHTV [C2V] | 2.73
QSIECGKSFNRHCNLIRHQKIHTV [C2S] | 1.81
QCRECGKSFNRHCNLIRHQKIHTV [I3R] | 3.59
QCDECGKSFNRHCNLIRHQKIHTV [I3D] | 3.4
QCHECGKSFNRHCNLIRHQKIHTV [I3H] | 4.06
QCIETGKSFNRHCNLIRHQKIHTV [C5T] | 1.95
QCIEFGKSFNRHCNLIRHQKIHTV [C5F] | 1.44
QCIECGKSFNRHCNLIRHQNIHTV [K20N] | 2.61
QCIECGKSFNRHCNLIRHQLIHTV [K20L] | 2.93
QCIECGKSFNRHCNLIRHQAIHTV [K20A] | 3.85
QCIECGKSFNRHCNLIRHQKIATV [H22A] | 2.76
QCIECGKSFNRHYNLIRHQKIHTV [C13Y] | 3.29
QCIECGKSFNRHANLIRHQKIHTV [C13A] | 4.31
QCIECGKSFNRHCNLIRGQKIHTV [H18G] | 2.91
QCIECGLSFNRHCNLIRHQKIHTV [K7L] | 2.86
QCIECGVSFNRHCNLIRHQKIHTV [K7V] | 2.44
QCIECGESFNRHCNLIRHQKIHTV [K7E] | 3.86
QCIECGKSFNRHCNLIRHQKIHTL [V24L] | 3.43
QCIECGKSFNRHCNLIRHQKSHTV [I21S] | 4
QCIECGKSFNRHCNLIRHQKDHTV [I21D] | 3.93
SCIECGKSFNRHCNLIRHQKIHTV [Q1S] | 3.44
QCIECGKSFNRHCNLIQHQKIHTV [R17Q] | 3.91
QCIECGKSFNRNCNLIRHQKIHTV [H12N] | 3.52
